Measurements: article PMC4058850, “The Bifunctional Pyruvate Decarboxylase/Pyruvate Ferredoxin Oxidoreductase from Thermococcus guaymasensis” (Archaea, 2014)

Tests used:
[1] = biological target: bifunctional pyruvate decarboxylase/pyruvate ferredoxin oxidoreductase from Thermococcus guaymasensis, heterotetramer of PorA, PorB, PorD and Por/VorG (Thermococcus guaymasensis (endogenous in DSM 11113)) (UniProt W8CQB2); assay: SEC; native enzyme purified from T. guaymasensis (about 1 mg) on HiLoad Superdex-200 in buffer E (50 mM Tris pH 7.8, 5% glycerol, 100 mM KCl, 2 mM DTT, 2 mM SDT), 2.5 mL/min, calibrated with protein standards; SDS-PAGE of the enzyme after the column; apparent Mr 258,000
[2] = biological target: T1, TgPDC/POR (Thermococcus guaymasensis, UniProt W8CQB2+W8CQR1); assay: PDC activity with desulfo-CoA substituted for CoA; type: biochemical; details: PDC reaction; 80°C, anaerobic
T1 construct: gene porA; native, purified anaerobically from T. guaymasensis cells; no tag; dimer of heterotetramers, 258 kDa by gel filtration; with Pyruvate synthase subunit PorD; Pyruvate/ketoisovalerate oxidoreductases common subunit gamma
T1 sequence (W8CR61 1-105 partner, one chain of several): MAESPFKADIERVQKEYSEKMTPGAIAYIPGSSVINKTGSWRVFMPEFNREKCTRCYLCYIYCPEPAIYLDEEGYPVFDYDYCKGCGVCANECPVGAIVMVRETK
T1 sequence (W8CQB1 1-185 partner, one chain of several): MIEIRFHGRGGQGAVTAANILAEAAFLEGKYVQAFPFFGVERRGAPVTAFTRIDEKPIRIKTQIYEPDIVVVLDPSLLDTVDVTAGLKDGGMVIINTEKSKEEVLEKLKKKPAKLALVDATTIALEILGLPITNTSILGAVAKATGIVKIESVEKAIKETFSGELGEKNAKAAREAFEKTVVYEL

[3] = biological target: T1, TgPDC/POR; assay: POR activity; type: biochemical; details: POR reaction; concentration not given
[4] = biological target: T2, PfPDC/POR (Pyrococcus furiosus, UniProt Q51804+Q51805); assay: PDC activity with desulfo-CoA substituted for CoA; type: biochemical; details: PDC reaction; 80°C, anaerobic
T2 construct: gene porA; native, purified anaerobically from P. furiosus cells; no tag; dimer of heterotetramers, about 260 kDa; with Pyruvate synthase subunit PorD; Pyruvate/ketoisovalerate oxidoreductases common subunit gamma

[5] = biological target: T2, PfPDC/POR; assay: POR activity, pyruvate- and CoA-dependent methyl viologen reduction; type: biochemical; details: POR reaction; 80°C, pH 8.4, anaerobic; 100 μM CoASH, 5 mM pyruvate
[6] = substrate: CC(=O)C(=O)O; assay: PDC activity, acetaldehyde as DNPH hydrazone by RP-HPLC; type: biochemical, Thermococcus guaymasensis; details: PDC (nonoxidative decarboxylation) reaction, 1 mM CoA, 0.1 mM TPP, Mg2+, optimal pH (9.5), 80°C, anaerobic
Text: PDC activity, acetaldehyde as DNPH hydrazone by RP-HPLC on TgPDC/POR

[7] = substrate: CC(=O)C(=O)O; assay: purified protein; type: biochemical, Thermococcus guaymasensis; details: POR (oxidative decarboxylation) reaction, 0.1 mM CoA, 1 mM MV, 0.4 mM TPP, Mg2+, pH 8.4 (optimal pH), 80°C, anaerobic
[8] = biological target: the molecule itself; assay: SEC; native enzyme from P. furiosus; HiLoad Superdex-200 in buffer E as a step of the purification; native molecular weight of approximately 260 kDa told in the discussion, how it was estimated is not told for this enzyme

Q: Which stoichiometry N [1] does the source give for “bifunctional pyruvate decarboxylase/pyruvate ferredoxin oxidoreductase from Thermococcus guaymasensis, heterotetramer of PorA, PorB, PorD and Por/VorG (from UniProt W8CQB2 1-331; W8CR61 1-105) (complex)” here?
A: The stoichiometry N was 2.

Q: Which “% of activity with CoA” value [2] does the source give for CCNC(=O)CCNC(=O)[C@H](O)C(C)(C)COP(=O)(O)OP(=O)(O)OC[C@H]1O[C@@H](n2cnc3c(N)ncnc32)[C@H](O)[C@@H]1OP(=O)(O)O [desulfo-CoA] here?
A: The value was ~ 75%.

Q: What about the completely inhibitory [3] of the same molecule?
A: The completely inhibitory was “desulfo-CoA, an analogue of CoA, was completely inhibitory for the oxidation (POR) reaction”.

Q: And the “% of activity with CoA” value [4]?
A: The value was ~ 80%.

Q: How did the “POR activity, pyruvate- and CoA-dependent methyl viologen reduction” value [5] turn out when CC(C)(COP(=O)(O)OP(=O)(O)OC[C@H]1O[C@@H](n2cnc3c(N)ncnc32)[C@H](O)[C@@H]1OP(=O)(O)O)[C@@H](O)C(=O)NCCC(=O)NCCS [coenzyme A] was run?
A: Its value is “The pyruvate- and coenzyme A-dependent reduction of the methyl viologen was measured for POR activities”.

B1: TgPDC/POR (Thermococcus guaymasensis) (protein)
chain 1: MPIRTVMKANEAAAWAAKLAKPKVIAAFPITPSTLVPEKISEFVANGELDAEFIKVESEHSAISACVGASAAGVRTFTATASQGLALMHEVLFIAAGMRLPIVMAIGNRSLSAPINIWNDWQDSISERDTGWLQFYAENNQEALDLILIAYKVAEDERVLLPAMVGFDAFILTHTVEPVEIPDQELVDEFLGEYEPKHAYLASARPLTQGTLAFPAHYMEARYTVWQANENAKKVIDEVFAEFEKRFGRKYQKVEEYRTDDAEIIFVTMGSLAGTVKEYVDHLREKGIKAGAAKLTVYRPFPIEEVRELAKKAKVLALLEKNVTFSVGGALFQDFSRALINQEEKPKIVDFILGLGGRDVTFKDLDEALAIAQKALNGEKVDEVNWIGLRKEIL
chain 2: MAVRKPPITTREYWAPGHAACAGCGCAIALKLATKAFSEAMEEKYGDPNAFAIAQATGCMEVVSAVFPYTAWKVPWVHVAFENAAAAASGVEAAWKKLGRKGKILAIGGDGGTADIGMQALSGMLERRHNVVYLMYDNEAYMNTGIQRSSSTPYGAWTTTSPPGKYSIGEDKPKKWVALIAAAHQVPYVATASIGNPFDFVRKMKKAAKVDGPAFVQVHCTCPTGWKSPLEKGVEIARLAIETGVWPLFEIENGDFHNIKIQPPGGGAKVTREGGRIVAIEFKKPIEEYLKLQGRFKHLFKQPEAIDVMREQIKAMWKVLGVDVTLPKPEE
notes: native, purified anaerobically from T. guaymasensis cells; no tag; dimer of heterotetramers, 258 kDa by gel filtration; with Pyruvate synthase subunit PorD; Pyruvate/ketoisovalerate oxidoreductases common subunit gamma
Q: With B1 as the molecule, how does the Km [6] read?
A: The Km was 250 ± 50 µM.

Q: And the Vmax [6]?
A: The Vmax was 3.8 µmol/min/mg.

Q: What about the Km [7] of the same molecule?
A: The Km was 530 ± 30 µM.

Q: What about the Vmax [7] of the same molecule?
A: The Vmax was 18 µmol/min/mg.

B2: bifunctional pyruvate decarboxylase/pyruvate ferredoxin oxidoreductase from Pyrococcus furiosus, heterotetramer (complex)
chain 1: MPIRKVMKANEAAAWAAKLAKPKVIAAFPITPSTLIPEKISEFVANGELDAEFIKVESEHSAISACVGAAAAGVRTFTATASQGLALMHEILFIAAGMRLPIVMAIGNRALSAPINIWNDWQDTISQRDTGWMQFYAENNQEALDLILIAYKVAEDERVLLPAMVGFDAFILTHTVEPVEIPDQEVVDEFLGEYEPKHAYIDPARPITQGSLAFPAHYMESRYTVWEAMERAKKVIDEAFAEFEKKFGRKYQKIEEYKTEDADIIFVTMGSLAGTLKEWIDKKREEGYKVGAAKITVYRPFPVEEIRELAKKAKVLAFLEKNITIGLYGAVFTDASAALINESEKPLMVDFIVGLGGRDVTFNQLDEALEIAEKALKEGKVENPINWIGLRWELVK
chain 2: MAVRKPPITTREYWAPGHAACAGCGCATALRLATKALSEAMEEKYGDPNAFAIAHATGCMEVVSAVFPYTAWKAPWIHVAFENAAAVASGIEAAWKKLGRKGKILAIGGDGGTADIGLQALSGMLERWHNVLYLMYDNEAYMNTGIQRSSSTPYGAWTTTSPPGKYSVGEDKPKKWVALIAAAHQIPYVATASIGNPLDFVRKIKKAGKIDGPAFVQVLCTCPTGWRSPLEKGVEIARLAIETGIWPLFEIENGDIWNIKIQPPGGGAKVYKEGNRVVRIEFKKPIEEYLKLQGRFKHLFKRPEAIEELRNQVKAMWKVLGVEAILPRPEE
chain 3: MIEVRFHGRGGQGAVTAANILAEAAFLEGKYVQAFPFFGVERRGAPVTAFTRIDNKPIRIKTQIYEPDVVVVLDPSLLDAVDVTAGLKDEGIVIVNTEKSKEEVLEKLKKKPKKLAIVDATTIALEILGLPITNTAILGAVAKATGLVKIESIEEAIKDTFSGELGEKNARAAREAYEKTEVFEL
chain 4: MAESPFKADIERAQKELSEKMTPGAIVYIPGSSVINKTGSWRVFKPEFNRDKCVRCYLCYIYCPEPAIYLDEEGYPVFDYDYCKGCGICANECPTKAIEMVREVK
notes: alpha subunit (PorA) of pyruvate ferredoxin oxidoreductase, Pyrococcus furiosus; beta subunit (PorB) of pyruvate ferredoxin oxidoreductase, Pyrococcus furiosus; gamma subunit (Por/VorG) of pyruvate ferredoxin oxidoreductase, Pyrococcus furiosus; delta subunit (PorD) of pyruvate ferredoxin oxidoreductase, Pyrococcus furiosus; One heterotetramer (one copy of each subunit); the native enzyme is …
Q: How did the “stoichiometry N” value [8] turn out when B2 was run?
A: Its value is 2.
